Reference: US20050232917 (published 2005)
Numbering of substitutions follows the chain as printed. Like-named read-outs stand apart in the source and are kept apart here.

T1: cynomolgus/human MAdCAM chimera (on CHO cells) (cynomolgus/human)
T1 chain: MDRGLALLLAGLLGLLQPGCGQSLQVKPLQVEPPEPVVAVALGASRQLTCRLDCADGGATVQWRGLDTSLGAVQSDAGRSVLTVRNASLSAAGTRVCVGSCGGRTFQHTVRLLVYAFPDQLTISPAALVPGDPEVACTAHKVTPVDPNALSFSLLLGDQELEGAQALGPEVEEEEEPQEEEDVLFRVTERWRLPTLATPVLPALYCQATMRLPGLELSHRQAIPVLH

T2: human MAdCAM (on CHO cells) (human, UniProt Q13477)
T2 chain: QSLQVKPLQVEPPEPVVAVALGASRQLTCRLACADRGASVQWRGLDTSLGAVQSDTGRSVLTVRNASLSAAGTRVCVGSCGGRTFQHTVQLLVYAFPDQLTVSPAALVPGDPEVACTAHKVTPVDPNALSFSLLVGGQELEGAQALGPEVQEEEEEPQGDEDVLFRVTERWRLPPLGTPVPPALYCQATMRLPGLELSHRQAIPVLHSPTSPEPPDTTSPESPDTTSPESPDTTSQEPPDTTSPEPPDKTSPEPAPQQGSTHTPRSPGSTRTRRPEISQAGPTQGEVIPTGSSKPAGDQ

T3: mouse MAdCAM (mouse, UniProt Q61826)
T3 chain: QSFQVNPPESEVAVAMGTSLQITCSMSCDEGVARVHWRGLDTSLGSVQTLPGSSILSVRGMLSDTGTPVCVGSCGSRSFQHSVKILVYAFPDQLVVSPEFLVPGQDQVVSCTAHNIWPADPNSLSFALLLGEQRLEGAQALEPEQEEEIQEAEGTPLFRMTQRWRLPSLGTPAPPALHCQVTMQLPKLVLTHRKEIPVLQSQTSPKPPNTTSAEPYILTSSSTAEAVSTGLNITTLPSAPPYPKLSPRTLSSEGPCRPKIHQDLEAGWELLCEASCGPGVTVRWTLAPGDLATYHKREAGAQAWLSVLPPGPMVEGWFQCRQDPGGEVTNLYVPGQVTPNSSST

B1: 7.20.5 (antibody, V domains shown)
VH: QVQLQESGPGLVKPSETLSLTCTVSGSSISSYHWNWIRQPAGKGLEWIGRIYTSGSTNYNPSLKSRVTMSLDTSKNQFSLKLSSVTAADTAVYYCAREGVRYYYASGSYYYGLDVWGQGTTVTVSS
VL: not shown
B2: 6.73.2 (antibody, V domains shown)
VH: EVQLLESGGDLVQPGGSLRLSCAASGFTFRSYAMNWVRQAPGKGLEWVSVISGRGGTTYYADSVKGRFTISRDNSKNTLYLQMNSLRAEDAAVYYCAKIAVAGEGLYYYYGMDVWGQGTTVTVSS
VL: MDMRVPAQLLGLLLLWLRGARCDIQMTQSPSSLSASVGDRVTFTCRASQNITNYLNWYQQKPGKAPKLLIYAASSLPRGVPSRFRGSGSGTDFTLTISSLQPEDFATYYCQQSYSNPPECGFGQGTTLDIKR
B3: 6.34.2 (antibody, V domains shown)
VH: QVQLVESGGGVVQPGRSLRLSCAASGFTFSSYGMHWVRQAPGKGLEWVAVISNDGNNKYYADSVKGRFTISRDNSKNTLYLQMNSLSAEDTAVYYCARDSTAITYYYYGMDVWGQGTTVTVSS
VL: MDMRVPAQLLGLLLLWLRGARCDIQMTQSPSSLSASVGDRVTITCRASQNISSYLNWFQQKPGKAPKLLIYAASGLKRGVPSRFSGSGSGTDFTLTIRTLQPDDFATYSCHQSYSLPFTFGPGTKVDIKR
B4: 6.34.2-mod (antibody, V domains shown)
VH: B3 VH with S87R
VL: B3 VL with N50S, F58Y, R98S, T99S, D103E, S109Y
B5: 1.8.2 (antibody, V domains shown)
VH: EVQLVESGGGLVKPGGSLRLSCVVSGFTFTNAWMIWVRQAPGKGLEWVGRIKRKTDGGTTDYAAPVKGRFTISRDDSKNTLYLQMNSLKTEDTAVYYCTTGGVAEDYWGQGTLVTVSS
VL: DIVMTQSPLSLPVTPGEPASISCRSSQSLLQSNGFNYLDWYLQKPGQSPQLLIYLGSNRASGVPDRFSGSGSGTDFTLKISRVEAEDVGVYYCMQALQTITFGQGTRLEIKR
B6: 1.7.2 (antibody, V domains shown)
VH: B5 VH with V24A
VL: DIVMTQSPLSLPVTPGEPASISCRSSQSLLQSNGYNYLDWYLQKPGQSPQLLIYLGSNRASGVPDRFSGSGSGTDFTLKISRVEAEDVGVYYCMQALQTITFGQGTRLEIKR
B7: 7.26.4 (antibody, V domains shown)
VH: QVQLVQSGAEVKKPGASVKVSCEASGYTFTSYGIDWVRQAPGQGLEWMGWISVYSGNTNYAQKLQGRVTMSTDTSTSTAYMELRSLRSDDTAVYYCAREGSSSSGDYYYGMDVWGQGTTVTVSS
VL: DIVMTQTPLSLSVTPGQPASISCKSNQSLLYSDGKTYLFWYLQKPGQPPQLLIYEVSNRFSGVPDRFSGSGSGTDFTLKISRVEAEDVGVYYCMQSIQLPWTFGQGTKVEIKR
B8: 7.16.6 (antibody, V domains shown)
VH: B7 VH with E23K, D35N, L64V, S71T, T72A, E82D
VL: B7 VL with N26S, Y31H, S32T, K35T, F39Y, V90I, S96N
B9: 6.77.1 (antibody, V domains shown)
VH: EVQLVESGGGLVKPGGSLRLSCAASGFTFSSYSMNWVRQAPGKGLEWVSSISSSSSYIYYADSVKGRFTISRDNAKNSLYLQMNSLRAEDTAVYYCARDGYSSGWSYYYYYGMDVWGQGTTVTVSS
VL: B7 VL with K24N, N26S, Y31L, F39N, Y92S, P100M, W101C, T102S, V109L
B10: 6.67.1 (antibody, V domains shown)
VH: QVQLQESGPGLVKPSETLSLTCTVSGDSISSNYWSWIRQPAGKGLEWIGRIYTSGGTNSNPSLRGRVTILADTSKNQFSLKLSSVTAADTAVYYCARDRITIIRGLIPSFFDYWGQGTLVTVSS
VL: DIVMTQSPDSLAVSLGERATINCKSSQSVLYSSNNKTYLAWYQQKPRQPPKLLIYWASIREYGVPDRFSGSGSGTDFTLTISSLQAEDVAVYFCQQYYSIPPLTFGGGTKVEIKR
B11: 6.14.2 (antibody, V domains shown)
VH: EVQLLESGGGLVQPGGSLRLSCAASGLTFNNSAMTWVRQAPGKGLEWVSTTSGSGGTTYYADSVKGRFTISRDSPKNTLYLQMNSLRAEDTAVYYCAARGYSYGTTPYEYWGQGTLVTVSS
VL: MDMRVPAQLLGLLLLWLRGARCDIQMTQSPSSLSASVGDRVTITCRASRSISSYLNWYQQKPGKAPKVLIFFVSSLQSGVPSRFSGSGSGTDFTLTISSLQPEDFATYYCQQNYIPPITFGQGTRLEIRR
B12: 9.8.2 (antibody, V domains shown)
VH: QVQLVESGGGVVQPGRSLRLSCAASGFTFSSYGMHWVRQAPGKGLEWVAVIWYDGSNEYYADSVKGRFTISRDNSKNTLYLQMNSLRAEDTAVYYCARGAYHFAYWGQGTLVTVSS
VL: DMRVPAQLLGLLLLWLSVAGARCDIQMTQSPSSLSASVGDRVTITCQASQDISNYLNWYQQKPGKAPKLLIYDASNLETGVPSRFSGSGSGTDFTFTISSLQPEDIATYSCQHSDNLSITFGQGTRLEIKR
B13: 6.22.2 (antibody, V domains shown)
VH: QVQLVESGGGVVQPGRSLRLSCAASGHTFSSDGMHWVRQAPGKGLEWVAIIWYDGSNKYYADSVKGRFTISRDNSKNTLYLQMNSLRAEDTAVYYCARDPGYYYGMDVWGQGTTVTVSS
VL: EIVLTQSPDFQSVTPKEKVTITCRASQRIGSSLHWYQQKPDQSPKLLIKYASQSFSGVPSRFSGSGSGTNFTLTINGLEAEDAATYYCHQSGRLPLTFGGGTKVEIKR

What was measured:
[1] = biological target: T1, cynomolgus/human MAdCAM chimera (on CHO …); test: competition, JY cell adhesion to CHO
[2] = biological target: T2, human MAdCAM (on CHO cells); test: competition, JY cell adhesion to CHO
[3] = biological target: MAdCAM-IgG1 Fc fusion (human); test: SPR, protocol 1
Sequence of MAdCAM-IgG1 Fc fusion (human) (chain, as listed by the source): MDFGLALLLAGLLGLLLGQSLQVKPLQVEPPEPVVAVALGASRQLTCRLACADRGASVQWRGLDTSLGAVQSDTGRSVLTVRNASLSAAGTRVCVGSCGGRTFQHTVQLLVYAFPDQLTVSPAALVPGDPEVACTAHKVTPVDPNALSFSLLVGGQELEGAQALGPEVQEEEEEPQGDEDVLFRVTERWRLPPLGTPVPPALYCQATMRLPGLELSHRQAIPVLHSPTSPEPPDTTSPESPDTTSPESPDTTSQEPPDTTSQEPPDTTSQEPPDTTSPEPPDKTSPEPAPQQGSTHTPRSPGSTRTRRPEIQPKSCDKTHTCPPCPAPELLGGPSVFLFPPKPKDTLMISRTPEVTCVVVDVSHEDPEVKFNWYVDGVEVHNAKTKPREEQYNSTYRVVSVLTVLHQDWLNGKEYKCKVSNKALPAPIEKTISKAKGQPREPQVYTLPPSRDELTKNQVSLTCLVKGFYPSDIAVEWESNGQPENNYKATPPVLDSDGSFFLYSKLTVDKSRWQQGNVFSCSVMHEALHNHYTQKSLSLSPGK

[4] = biological target: MAdCAM-IgG1 Fc fusion (human); test: competition, JY cell adhesion
[5] = biological target: T1, cynomolgus/human MAdCAM chimera (on CHO …); test: FACS
[6] = biological target: T3, mouse MAdCAM; test: ELISA
[7] = biological target: MAdCAM-IgG1 Fc fusion (human); test: SPR, protocol 2
[8] = biological target: MAdCAM-IgG1 Fc fusion (human); test: competition, JY cell adhesion; remark: listed apart in the source

Binder	IC50 [1] [µg/mL]	IC50 [2] [µg/mL]	Kd [3] [nM]	IC50 [4] [µg/mL]	binding result [5]	binding result [6]	Kd [7] [nM]	IC50 [8] [µg/mL]
B1	0.62	0.387	–	–	–	–	–	–
B2	–	0.369	0.093	0.02	no binding	no binding	–	–
B3	0.47	0.285	0.0158	0.013	–	no binding	< 0.015	0.013
B4	–	–	–	–	–	–	–	0.049
B5	–	0.424	0.035	0.027	–	–	–	–
B6	–	0.502	0.042	0.03	–	–	–	–
B7	0.96	0.574	–	–	–	–	–	–
B8	0.72	–	0.0015	0.019	–	–	0.0048	–
B9	0.64	0.52	0.0067	–	–	–	–	–
B10	0.75	0.298	–	–	–	–	–	–
B11	0.53	0.291	0.0077	0.011	–	no binding	< 0.01	–
B12	0.83	0.44	0.1	0.02	–	no binding	0.0325	–
B13	0.83	0.573	–	–	–	–	–	–
